In patent US20060228349A1 (published 2006):
Positions count from the first letter of the chain named.

Legend:
[1] = biological target: T1, Biotinylated ADDL preparations (bADDLs) (N-terminal biotin); experiment: BIACORE, bADDL as antigen; column IgG1#1
T1 construct: Oligomer, number of copies not fixed; also called biotinylated ADDL antigen; high molecular weight 10% bADDL

biotin-Aβ1-20 [2] = biological target: T2, biotin-Aβ1-20 (biotin (position not given)); experiment: BIACORE, biotin-Aβ1-20 as antigen; column IgG1#2
T2 peptide: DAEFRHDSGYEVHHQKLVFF

biotin-Aβ1-20 [3] = biological target: T2, biotin-Aβ1-20; experiment: BIACORE, biotin-Aβ1-20 as antigen; column IgG1#1
[4] = biological target: T1, Biotinylated ADDL preparations (bADDLs); experiment: BIACORE, bADDL as antigen; column IgG1#2
[5] = biological target: T1, Biotinylated ADDL preparations (bADDLs); experiment: BIACORE, bADDL as antigen; column Fab
biotin-Aβ1-20 [6] = biological target: T2, biotin-Aβ1-20; experiment: BIACORE, biotin-Aβ1-20 as antigen; column Fab
[7] = biological target: T3, Aβ-derived diffusible ligands (synthetic ADDLs), soluble oligomers of amyloid β1-42; experiment: immunofluorescence of ADDLs bound to primary hippocampal neurons
T3 construct: Oligomeric preparation of synthetic Aβ1-42 in DMSO/F12 (monomer, trimer, tetramer, 12-24mer on SDS-PAGE); number of copies not fixed; also called soluble Aβ oligomers

[8] = biological target: T1, Biotinylated ADDL preparations (bADDLs); experiment: BIACORE, bADDL as antigen; column Fab (row shifted one column to the left)
Aβ1-20 peptide = biological target: T4, Aβ1-20 peptide; experiment: peptide ELISA
T4 peptide: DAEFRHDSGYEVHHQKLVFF

[9] = biological target: T3, Aβ-derived diffusible ligands …; experiment: solution equilibrium titration, free IgG by ELISA, GraFit; SE 0.74
[10] = biological target: T5, ADDL fibril preparation (Aβ1-42 fibrils); experiment: solution equilibrium titration, free IgG by ELISA, GraFit; SE 0.59
T5 construct: Fibrillar assembly; number of copies not fixed

[11] = biological target: T6, amyloid beta (1-40) peptide; experiment: solution equilibrium titration, free IgG by ELISA, GraFit; SE 21.86
T6 construct: Used as monomer-like control; also called Aβ1-40; monomer preparation

[12] = biological target: T5, ADDL fibril preparation (Aβ1-42 fibrils); experiment: solution equilibrium titration, free IgG by ELISA, GraFit; SE 0.99
[13] = biological target: T6, amyloid beta (1-40) peptide; experiment: solution equilibrium titration, free IgG by ELISA, GraFit; SE 2.64
[14] = biological target: T3, Aβ-derived diffusible ligands …; experiment: solution equilibrium titration, free IgG by ELISA, GraFit; SE 0.25
[15] = biological target: T7, SEC Peak 2 fraction of ADDLs (small aggregates, <30 kDa); experiment: sandwich ELISA on SEC peaks (FIG. 3)
T7 construct: Mostly monomer with small amounts of trimer and tetramer, no 12-24mer

[16] = biological target: T8, SEC Peak 1 fraction of ADDLs (large aggregates, >50 kDa); experiment: sandwich ELISA on SEC peaks (FIG. 3)
T8 construct: Monomer, trimer, tetramer and 12-24mer on SDS-PAGE

[17] = biological target: T3, Aβ-derived diffusible ligands …; experiment: solution equilibrium titration, free IgG by ELISA, GraFit; SE 1.03
[18] = biological target: T6, amyloid beta (1-40) peptide; experiment: solution equilibrium titration, free IgG by ELISA, GraFit; SE 4.14
[19] = biological target: T5, ADDL fibril preparation (Aβ1-42 fibrils); experiment: solution equilibrium titration, free IgG by ELISA, GraFit; SE 3.69
[20] = biological target: T5, ADDL fibril preparation (Aβ1-42 fibrils); experiment: solution equilibrium titration, free IgG by ELISA, GraFit; SE 1.60
[21] = biological target: T3, Aβ-derived diffusible ligands …; experiment: solution equilibrium titration, free IgG by ELISA, GraFit; SE 0.42
[22] = biological target: T6, amyloid beta (1-40) peptide; experiment: solution equilibrium titration, free IgG by ELISA, GraFit; SE 2.07

B1: 20C2-2A, affinity matured humanized 20C2, IgG1 humanized A version (antibody, V domains shown)
VH: QVTLKESGPALVKPTQTLTLTCTFSGFSLSTSGMGVGWIRQPPGKALEWLAHIWWDDDKSYNPSLKSRLTISKDTSKNQVVLTMTNMDPVDTATYYCARRQLGLRSIDAMDYWGQGTTVTVSS
VL: DVVMTQSPLSLPVTPGEPASISCRSSQSILHSNGNTYLEWYLQKPGQSPQLLIYKVSNRFSGVPDRFSGSGSGTDFTLKISRVEAEDVGVYYCFQATRVPLTFGQGTKLEIKR
notes: also called SJ-p1-18
- Kd [1]: 0.015 nM
- Kd (biotin-Aβ1-20 [2]): 2 nM
- Kd (biotin-Aβ1-20 [3]): 0.686 nM
- Kd [4]: 0.0003 nM

B2: 20C2-7A Fab fragment (clone SJ-p2-27) (Fab, V domains shown)
VH: B1 VH
VL: B1 VL with F94L, Q95N, A96S, R98T
- Kd [5]: 435 nM
- Kd (biotin-Aβ1-20 [6]): 128 nM

B3: 20C2-13A Fab fragment (clone 4p1-20) (Fab, V domains shown)
VH: B1 VH
VL: B1 VL with F94L, A96T, T97S, R98N
- Kd [5]: 567 nM
- Kd (biotin-Aβ1-20 [6]): 94 nM

B4: 20C2-8A, affinity matured humanized 20C2, IgG1 humanized A version (antibody, V domains shown)
VH: B1 VH
VL: B1 VL with F94L, A96T
notes: also called SJ-p2-39
- Kd [1]: 0.003 nM
- Kd (biotin-Aβ1-20 [2]): 0.376 nM
- Kd (biotin-Aβ1-20 [3]): 0.14 nM
- Kd [4]: 0.0007 nM

B5: 20C2-1A Fab fragment (clone SJ-p2-60) (Fab, V domains shown)
VH: B1 VH
VL: B1 VL with T97S
- Kd [5]: 85 nM
- Kd (biotin-Aβ1-20 [6]): 91 nM

B6: 20C2-5A Fab fragment (clone SJ-p2-1F) (Fab, V domains shown)
VH: B1 VH
VL: B1 VL with A96S, T97S, R98F
- Kd [5]: 41 nM
- Kd (biotin-Aβ1-20 [6]): 41 nM

B7: 20C2-23A, affinity matured humanized 20C2, IgG1 humanized A version (antibody, V domains shown)
VH: B1 VH
VL: B1 VL with F94H, A96S, T97S, R98K
notes: also called 4P1-40
- Kd [1]: 0.085 nM
- Kd (biotin-Aβ1-20 [2]): 1.5 nM
- Kd (biotin-Aβ1-20 [3]): 0.649 nM
- Kd [4]: 0.066 nM

B8: 20C2-2A Fab fragment (clone SJ-p1-18) (Fab, V domains shown)
VH: B1 VH
VL: B1 VL
- Kd [5]: 28 nM
- Kd (biotin-Aβ1-20 [6]): 28 nM

B9: 20C2-6A, affinity matured humanized 20C2, IgG1 humanized A version (antibody, V domains shown)
VH: B1 VH
VL: B1 VL with A96S, T97S
notes: also called 4P1-22
- Kd [1]: 0.0043 nM
- Kd (biotin-Aβ1-20 [2]): 0.714 nM
- Kd (biotin-Aβ1-20 [3]): 0.544 nM
- Kd [4]: 0.024 nM

B10: 20C2-12A Fab fragment (clone 4P1-32) (Fab, V domains shown)
VH: B1 VH
VL: B1 VL with F94L, A96S, T97S, R98L
- Kd [5]: 238 nM
- Kd (biotin-Aβ1-20 [6]): 617 nM

B11: 20C2-8B, affinity matured humanized 20C2, IgG1 humanized B version (antibody, V domains shown)
VH: B1 VH with F24L
VL: B1 VL with F94L, A96T
notes: also called SJ-p2-39
- Kd [1]: 0.013 nM
- Kd (biotin-Aβ1-20 [2]): 0.064 nM
- Kd (biotin-Aβ1-20 [3]): 0.046 nM
- Kd [4]: 0.0008 nM

B12: 20C2-8A Fab fragment (clone SJ-p2-39) (Fab, V domains shown)
VH: B1 VH
VL: B1 VL with F94L, A96T
- Kd [5]: 13 nM
- Kd (biotin-Aβ1-20 [6]): 14 nM

B13: 20C2-9A Fab fragment (clone SJ-p2-51) (Fab, V domains shown)
VH: B1 VH
VL: B1 VL with F94V, A96T, T97S, R98L
- Kd [5]: 40 nM
- Kd (biotin-Aβ1-20 [6]): 36 nM

B14: 20C2-9A, affinity matured humanized 20C2, IgG1 humanized A version (antibody, V domains shown)
VH: B1 VH
VL: B1 VL with F94V, A96T, T97S, R98L
notes: also called SJ-p2-51
- Kd (biotin-Aβ1-20 [2]): 0.42 nM
- Kd (biotin-Aβ1-20 [3]): 0.241 nM
- Kd [4]: 0.002 nM

B15: 20C2-5A, affinity matured humanized 20C2, IgG1 humanized A version (antibody, V domains shown)
VH: B1 VH
VL: B1 VL with A96S, T97S, R98F
notes: also called SJ-p2-1F
- Kd [1]: 0.317 nM
- Kd (biotin-Aβ1-20 [2]): 1.5 nM
- Kd (biotin-Aβ1-20 [3]): 0.912 nM
- Kd [4]: 0.068 nM

B16: 20C2-18A Fab fragment (clone SJ-p1-9M) (Fab, V domains shown)
VH: B1 VH
VL: B1 VL with F94M, A96S, T97S, R98F
- Kd [5]: 85 nM
- Kd (biotin-Aβ1-20 [6]): 126 nM

B17: murine anti-ADDL monoclonal antibody 2H4 (antibody, mouse IgG2a, V domains shown)
VH: DVQLVESGGGLVQPGGSRKLSCAASGFTFSSFGMHWVRQAPEKGLEWVAYIRSGSSTIYYADTVKGRFTISRDNPKNTLFLQMTSLRSEDTAMYYCTRGGNYYGSSRFAYWGQGTLVTVSA
VL: DIKMTQSPSSMYASLGERVTITCKASQDINSYLSWFQQKPGKSPKTLIYRANRFVDGVPSRFSGSGSGQDYSLTISSLEYEDMGIYFCLQYDEFPLTFGAGTKLVLK
- binding result [7]: binds

B18: Fab of mouse 20C2 (Fab, V domains shown)
VH: QVTLKESGPGILKPSQTLSLTCSLSGFSLSTSGMGVGWFRQPSGKGLEWLAHIWWDDDKSYNPSLKSRLTISKYTSRNQVFLTITSVDTADTATYYCARRQLGLRSIDAMDYWGQGTSVTVSS
VL: DVLMTQTPLSLPVSLGDQASISCRSSQSILHSNGNTYLEWYLQKPGQSPKLLIYKVSNRFSGVPDRFSGSGSGTDFTLKISRVEAEDLGVYYCFQGSLVPLTFGAGTKLELK
notes: also called Mouse-20C2 (Fab column)
- Kd (biotin-Aβ1-20 [6]): 83 nM
- Kd [8]: 62 nM

B19: murine anti-ADDL monoclonal antibody 1F6 (antibody, mouse IgG1, V domains shown)
VH: DVQLVESGGGLVQPGGSRKLSCAASGFTFSSFGMHWVRQAPEKGLEWVAYISSVSSTIYYADTVKGRFTISRDNPKNTLFLQMTSLRSEDTAMYYCARSGYGSSYGYGMDYWGQGTLVTVSS
VL: B18 VL with L30V, L98H
- binding result (Aβ1-20 peptide): binds

B20: murine anti-ADDL monoclonal antibody 3B3 (antibody, mouse IgG1, V domains shown)
VH: DVQLVESGGGLVQPGGSRKLSCAASGFTFSSFGMHWVRQAPEKGLEWVAYISRGSSTIYYADTVKGRFTISRDNPKNTLFLQMTSLRSEDTAMYYCARGITTALDYWGQGTSVTVSS
VL: B18 VL with L30V, V56A, L98H, L101P, A105G, L111I
- Kd [9]: 10 nM
- Kd [10]: 7.21 nM
- binding result (Aβ1-20 peptide): binds
- Kd [11]: 105 nM

B21: murine anti-ADDL monoclonal antibody 2A10 (antibody, mouse IgG1, V domains shown)
VH: QVTLKESGPGILKPSQTLSLTCSFSGFSLSTSGMGVGWIRQPSGKGLEWLAHIWWDDDKYYNPSLKSQLTISKDTSRNQVFLKITSVDTADTATYYCARRSISTLVPEDYFDYWGQGTTLTVSS
VL: B18 VL with L30V, L98H
- Kd [12]: 6.72 nM
- Kd [13]: 14.7 nM
- Kd [14]: 2.29 nM
- binding result [15]: binds
- binding result [16]: binds

B22: murine anti-ADDL monoclonal antibody 4C2 (antibody, mouse IgG1, V domains shown)
VH: B21 VH with S103T, L105V, D112A
VL: B18 VL with T7S, L30V, L98H
- Kd [17]: 8.08 nM
- Kd [18]: 21.9 nM
- Kd [19]: 19.2 nM
- binding result [15]: binds
- binding result [16]: binds

B23: murine anti-ADDL monoclonal antibody 4E2 (antibody, mouse IgG1, V domains shown)
VH: B21 VH with S103N, T104S, L105V, S124L
VL: B18 VL with L30V, L98H
- Kd [20]: 9.4 nM
- Kd [21]: 4.26 nM
- binding result [15]: binds
- binding result [16]: binds
- Kd [22]: 20.2 nM
